{"source": "paper PMC4018121", "binders": {"B1": {"name": "TOV6 (structured_DNA)", "DNA": "ATCCAGAGTGACGCAGCACGGCACTCACTCTTTGTTAAGTGGTCTGCTTCTTAACCTTCATCGACACGGTGGCTTA"}}, "target": "rhSTIP1 (stress-induced phosphoprotein 1) (Homo sapiens, UniProt P31948 1-543)", "test": "aptamer blot on nitrocellulose, chemiluminescence", "data": [{"binder": "B1", "values": [{"measurement": "binding result", "value": "binds"}]}]}
